Data taken from patent US20030180895A1.

Key:
Assay in all cases: cell-based or functional assay
[1] = molecular target: Bacillus subtilis xylanase A mutant N114K (Bacillus subtilis) (UniProt P18429)
[2] = molecular target: Bacillus subtilis xylanase A mutant N29Y (Bacillus subtilis) (UniProt P18429)
[3] = molecular target: Bacillus subtilis xylanase A mutant D11W (Bacillus subtilis) (UniProt P18429)
[4] = molecular target: Bacillus subtilis xylanase A mutant G120Y (Bacillus subtilis) (UniProt P18429)
[5] = molecular target: Bacillus subtilis xylanase A mutant G34T (Bacillus subtilis) (UniProt P18429)
[6] = molecular target: Bacillus subtilis xylanase A mutant T124D (Bacillus subtilis) (UniProt P18429)
[7] = molecular target: Thermomyces lanuginosus xylanase A mutant D19F (Thermomyces lanuginosus) (UniProt O43097)
[8] = molecular target: Bacillus subtilis xylanase A mutant D11N (Bacillus subtilis) (UniProt P18429)
[9] = molecular target: Bacillus subtilis xylanase A mutant N17Y (Bacillus subtilis) (UniProt P18429)
[10] = molecular target: Bacillus subtilis xylanase A mutant D11S (Bacillus subtilis) (UniProt P18429)
[11] = molecular target: Bacillus subtilis xylanase A mutant T124K (Bacillus subtilis) (UniProt P18429)
[12] = molecular target: Bacillus subtilis xylanase A mutant Q175L (Bacillus subtilis) (UniProt P18429)
[13] = molecular target: Bacillus subtilis xylanase A mutant N114F (Bacillus subtilis) (UniProt P18429)
[14] = molecular target: Bacillus subtilis xylanase A mutant Y113D (Bacillus subtilis) (UniProt P18429)
[15] = molecular target: Bacillus subtilis xylanase A mutant S31D (Bacillus subtilis) (UniProt P18429)
[16] = molecular target: Bacillus subtilis xylanase A mutant G34D (Bacillus subtilis) (UniProt P18429)
[17] = molecular target: Bacillus subtilis xylanase A mutant D121N (Bacillus subtilis) (UniProt P18429)
[18] = molecular target: Bacillus subtilis xylanase A mutant Y113K (Bacillus subtilis) (UniProt P18429)
[19] = molecular target: Bacillus subtilis wild type xylanase A (Bacillus subtilis) (UniProt P18429)
[20] = molecular target: Bacillus subtilis xylanase A mutant G34F (Bacillus subtilis) (UniProt P18429)
[21] = molecular target: Bacillus subtilis xylanase A mutant I15K (Bacillus subtilis) (UniProt P18429)
[22] = molecular target: Bacillus subtilis xylanase A mutant D119N (Bacillus subtilis) (UniProt P18429)
[23] = molecular target: Bacillus subtilis xylanase A mutant G120F (Bacillus subtilis) (UniProt P18429)
[24] = molecular target: Bacillus subtilis xylanase A mutant N114A (Bacillus subtilis) (UniProt P18429)
[25] = molecular target: Bacillus subtilis xylanase A mutant D11F/G34D (Bacillus subtilis) (UniProt P18429)
[26] = molecular target: Bacillus subtilis xylanase A mutant D121K (Bacillus subtilis) (UniProt P18429)
[27] = molecular target: Bacillus subtilis xylanase A mutant N29D (Bacillus subtilis) (UniProt P18429)

UniProt O43097, sequence (O43097 32-225, stated change not applied): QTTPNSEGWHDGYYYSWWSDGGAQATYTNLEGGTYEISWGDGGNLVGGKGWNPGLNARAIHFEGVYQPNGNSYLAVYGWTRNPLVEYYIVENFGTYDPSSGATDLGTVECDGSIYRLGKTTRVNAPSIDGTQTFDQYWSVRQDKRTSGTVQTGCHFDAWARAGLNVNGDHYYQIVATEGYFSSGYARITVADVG

Relative inhibition, % at 1, 26 XIU/ml [1]: 87%
Relative inhibition, % at 3, 15 XIU/ml [1]: 56%
Relative inhibition, % at 6, 3 XIU/ml [1]: 33%
Relative inhibition, % at 12, 6 XIU/ml [1]: 24%
Relative inhibition, % at 1, 26 XIU/ml [2]: 85%
Relative inhibition, % at 3, 15 XIU/ml [2]: 49%
Relative inhibition, % at 6, 3 XIU/ml [2]: 30%
Relative inhibition, % at 12, 6 XIU/ml [2]: 24%
Relative inhibition, % at 1, 26 XIU/ml [3]: 101%
Relative inhibition, % at 3, 15 XIU/ml [3]: 88%
Relative inhibition, % at 6, 3 XIU/ml [3]: 70%
Relative inhibition, % at 12, 6 XIU/ml [3]: 50%
Relative inhibition, % at 1, 26 XIU/ml [4]: 81%
Relative inhibition, % at 3, 15 XIU/ml [4]: 40%
Relative inhibition, % at 6, 3 XIU/ml [4]: 18%
Relative inhibition, % at 12, 6 XIU/ml [4]: 16%
Relative inhibition, % at 1, 26 XIU/ml [5]: 99%
Relative inhibition, % at 3, 15 XIU/ml [5]: 99%
Relative inhibition, % at 6, 3 XIU/ml [5]: 93%
Relative inhibition, % at 12, 6 XIU/ml [5]: 86%
Relative inhibition, % at 1, 26 XIU/ml [6]: 87%
Relative inhibition, % at 3, 15 XIU/ml [6]: 52%
Relative inhibition, % at 6, 3 XIU/ml [6]: 32%
Relative inhibition, % at 12, 6 XIU/ml [6]: 25%
Relative inhibition, % at 1, 26 XIU/ml [7]: 73%
Relative inhibition, % at 3, 15 XIU/ml [7]: 38%
Relative inhibition, % at 6, 3 XIU/ml [7]: 24%
Relative inhibition, % at 12, 6 XIU/ml [7]: 20%
Relative inhibition, % at 1, 26 XIU/ml [8]: 93%
Relative inhibition, % at 3, 15 XIU/ml [8]: 72%
Relative inhibition, % at 6, 3 XIU/ml [8]: 53%
Relative inhibition, % at 12, 6 XIU/ml [8]: 32%
Relative inhibition, % at 1, 26 XIU/ml [9]: 79%
Relative inhibition, % at 3, 15 XIU/ml [9]: 42%
Relative inhibition, % at 6, 3 XIU/ml [9]: 23%
Relative inhibition, % at 12, 6 XIU/ml [9]: 19%
Relative inhibition, % at 1, 26 XIU/ml [10]: 98%
Relative inhibition, % at 3, 15 XIU/ml [10]: 81%
Relative inhibition, % at 6, 3 XIU/ml [10]: 60%
Relative inhibition, % at 12, 6 XIU/ml [10]: 38%
Relative inhibition, % at 1, 26 XIU/ml [11]: 110%
Relative inhibition, % at 3, 15 XIU/ml [11]: 92%
Relative inhibition, % at 6, 3 XIU/ml [11]: 73%
Relative inhibition, % at 12, 6 XIU/ml [11]: 57%
Relative inhibition, % at 1, 26 XIU/ml [12]: 78%
Relative inhibition, % at 3, 15 XIU/ml [12]: 42%
Relative inhibition, % at 6, 3 XIU/ml [12]: 25%
Relative inhibition, % at 12, 6 XIU/ml [12]: 23%
Relative inhibition, % at 1, 26 XIU/ml [13]: 84%
Relative inhibition, % at 3, 15 XIU/ml [13]: 54%
Relative inhibition, % at 6, 3 XIU/ml [13]: 39%
Relative inhibition, % at 12, 6 XIU/ml [13]: 34%
Relative inhibition, % at 1, 26 XIU/ml [14]: 96%
Relative inhibition, % at 3, 15 XIU/ml [14]: 81%
Relative inhibition, % at 6, 3 XIU/ml [14]: 63%
Relative inhibition, % at 12, 6 XIU/ml [14]: 45%
Relative inhibition, % at 1, 26 XIU/ml [15]: 79%
Relative inhibition, % at 3, 15 XIU/ml [15]: 52%
Relative inhibition, % at 6, 3 XIU/ml [15]: 30%
Relative inhibition, % at 12, 6 XIU/ml [15]: 24%
Relative inhibition, % at 1, 26 XIU/ml [16]: 94%
Relative inhibition, % at 3, 15 XIU/ml [16]: 83%
Relative inhibition, % at 6, 3 XIU/ml [16]: 70%
Relative inhibition, % at 12, 6 XIU/ml [16]: 53%
Relative inhibition, % at 1, 26 XIU/ml [17]: 80%
Relative inhibition, % at 3, 15 XIU/ml [17]: 36%
Relative inhibition, % at 6, 3 XIU/ml [17]: 16%
Relative inhibition, % at 12, 6 XIU/ml [17]: 14%
Relative inhibition, % at 1, 26 XIU/ml [18]: 103%
Relative inhibition, % at 3, 15 XIU/ml [18]: 85%
Relative inhibition, % at 6, 3 XIU/ml [18]: 63%
Relative inhibition, % at 12, 6 XIU/ml [18]: 47%
Relative inhibition, % at 1, 26 XIU/ml [19]: 77%
Relative inhibition, % at 3, 15 XIU/ml [19]: 48%
Relative inhibition, % at 6, 3 XIU/ml [19]: 29%
Relative inhibition, % at 12, 6 XIU/ml [19]: 23%
Relative inhibition, % at 1, 26 XIU/ml [20]: 76%
Relative inhibition, % at 3, 15 XIU/ml [20]: 53%
Relative inhibition, % at 6, 3 XIU/ml [20]: 34%
Relative inhibition, % at 12, 6 XIU/ml [20]: 29%
Relative inhibition, % at 1, 26 XIU/ml [21]: 84%
Relative inhibition, % at 3, 15 XIU/ml [21]: 47%
Relative inhibition, % at 6, 3 XIU/ml [21]: 28%
Relative inhibition, % at 12, 6 XIU/ml [21]: 23%
Relative inhibition, % at 1, 26 XIU/ml [22]: 91%
Relative inhibition, % at 3, 15 XIU/ml [22]: 74%
Relative inhibition, % at 6, 3 XIU/ml [22]: 44%
Relative inhibition, % at 12, 6 XIU/ml [22]: 22%
Relative inhibition, % at 1, 26 XIU/ml [23]: 71%
Relative inhibition, % at 3, 15 XIU/ml [23]: 35%
Relative inhibition, % at 6, 3 XIU/ml [23]: 18%
Relative inhibition, % at 12, 6 XIU/ml [23]: 15%
Relative inhibition, % at 1, 26 XIU/ml [24]: 80%
Relative inhibition, % at 3, 15 XIU/ml [24]: 49%
Relative inhibition, % at 6, 3 XIU/ml [24]: 28%
Relative inhibition, % at 12, 6 XIU/ml [24]: 22%
Relative inhibition, % at 1, 26 XIU/ml [25]: 104%
Relative inhibition, % at 3, 15 XIU/ml [25]: 106%
Relative inhibition, % at 6, 3 XIU/ml [25]: 103%
Relative inhibition, % at 12, 6 XIU/ml [25]: 104%
Relative inhibition, % at 1, 26 XIU/ml [26]: 104%
Relative inhibition, % at 3, 15 XIU/ml [26]: 95%
Relative inhibition, % at 6, 3 XIU/ml [26]: 85%
Relative inhibition, % at 12, 6 XIU/ml [26]: 75%
Relative inhibition, % at 1, 26 XIU/ml [27]: 74%
Relative inhibition, % at 3, 15 XIU/ml [27]: 44%
Relative inhibition, % at 6, 3 XIU/ml [27]: 26%
Relative inhibition, % at 12, 6 XIU/ml [27]: 20%
Substance: wheat endogenous xylanase inhibitor
